T1: recombinant human CD73-His extracellular domain protein (soluble dimer) (human, UniProt P21589 27-547)
T1 construct: Purified as a dimer; also called huCD73; soluble recombinant human CD73
T1 sequence: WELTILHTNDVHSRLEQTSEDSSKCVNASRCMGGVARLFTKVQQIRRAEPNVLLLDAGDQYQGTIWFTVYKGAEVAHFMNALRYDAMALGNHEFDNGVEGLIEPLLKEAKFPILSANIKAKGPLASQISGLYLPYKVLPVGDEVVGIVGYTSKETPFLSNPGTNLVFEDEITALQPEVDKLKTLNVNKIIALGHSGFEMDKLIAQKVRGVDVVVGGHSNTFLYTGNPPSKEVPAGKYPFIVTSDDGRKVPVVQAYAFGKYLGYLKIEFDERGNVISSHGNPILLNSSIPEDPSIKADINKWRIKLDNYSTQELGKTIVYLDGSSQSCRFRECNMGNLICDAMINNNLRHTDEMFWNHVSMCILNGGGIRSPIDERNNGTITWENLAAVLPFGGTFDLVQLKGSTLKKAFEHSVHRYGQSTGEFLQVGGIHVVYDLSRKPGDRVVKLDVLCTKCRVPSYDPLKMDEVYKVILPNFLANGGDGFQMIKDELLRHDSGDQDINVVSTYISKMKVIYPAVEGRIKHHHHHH

T2: human CD73 mutant 16 (human, UniProt P21589 27-549)
T2 construct: Transfected in HEK293T cells
T2 chain: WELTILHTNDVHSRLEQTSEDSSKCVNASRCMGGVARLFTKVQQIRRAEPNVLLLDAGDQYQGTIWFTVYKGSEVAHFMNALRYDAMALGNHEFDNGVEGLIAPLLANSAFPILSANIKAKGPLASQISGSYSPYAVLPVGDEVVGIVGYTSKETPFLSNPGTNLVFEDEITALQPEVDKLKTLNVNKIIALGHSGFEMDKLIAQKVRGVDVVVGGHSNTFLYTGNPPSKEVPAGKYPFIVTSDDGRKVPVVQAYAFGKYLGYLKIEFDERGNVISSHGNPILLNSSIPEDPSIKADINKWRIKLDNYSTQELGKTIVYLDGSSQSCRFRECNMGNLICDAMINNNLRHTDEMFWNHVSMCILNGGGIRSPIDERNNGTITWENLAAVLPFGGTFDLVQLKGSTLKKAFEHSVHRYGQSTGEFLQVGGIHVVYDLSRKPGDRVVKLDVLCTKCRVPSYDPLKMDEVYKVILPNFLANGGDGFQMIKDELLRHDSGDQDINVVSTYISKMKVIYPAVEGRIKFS

T3: human CD73 mutant 22 (human, UniProt P21589 27-549)
T3 construct: Transfected in HEK293T cells
T3 chain: T2 chain with K71A, E99A, A110K, S131L, S133L, A136K, K304A

T4: human CD73 mutant 21 (human, UniProt P21589 27-549)
T4 construct: Transfected in HEK293T cells
T4 chain: T2 chain with K71A, E99A, A110K, Q127A, S131L, S133L, A136K

B1: antibody 11E1 (antibody, human IgG1, V domains shown)
VH: EIQLQQSGPELVKPGASVKVSCKASGYAFTSYNMYWVKQSHGKSLEWIGYIDPYNGGTSYNQKFKGKATLTVDKSSSTAYMHLNSLTSEDSAVYYCARGYGNYKAWFAYWGQGTLVTVSA
VL: DAVMTQTPKFLLVSAGDRVTITCKASQSVTNDVAWYQQKPGQSPKLLIYYASNRYTGVPDRFTGSGYGTDFTFTISTVQAEDLAVYFCQQDYSSLTFGAGTKLELK
notes: Produced as chimeric human IgG1 with heavy chain N297Q (Kabat EU numbering); also called 1E11
B2: antibody 6E1 (antibody, human IgG1, V domains shown)
VH: B1 VH with I2F, S44R, T58S, S85N, G101N
VL: B1 VL with D1S, A2I, V78M
notes: Produced as chimeric human IgG1 with heavy chain N297Q (Kabat EU numbering)
B3: antibody 3C12 (antibody, human IgG1, V domains shown)
VH: B1 VH with E1Q, T30A, Y35N, E46D, T58S, Q62L, K63T, S77T
VL: DVVMTQTPKFLLVSAGDRVTITCKASQSVSNDVAWYQQKPGQSPKLLIYYASTRYTGVPDRFTGSGYGTDFTFTISTVQAEDLAVYFCQQDYSSLTFGAGTKLELKR
notes: Produced as chimeric human IgG1 with heavy chain N297Q (Kabat EU numbering); RTVAAP)

Data on 3 molecules can be found in patent US20180030144A1 (INNATE PHARMA, published 2018).

Changes are numbered by the printed parent chain. Numbers in names are those of the source.

The first experiment deals with T1, recombinant human CD73-His …. The experiment in a line: SPR (Biacore T100), antibody captured on Protein-A, soluble dimeric CD73 injected 1.23-300 nM, 1:1 model, bivalent affinity. On the procedure:
SPR measurements were performed on a Biacore T100 apparatus (Biacore GE Healthcare) at 25° C. In all Biacore experiments HBS-EP+(Biacore GE Healthcare) and NaOH 10 mM served as running buffer and regeneration buffer respectively. Sensorgrams were analyzed with Biacore T100 Evaluation software. Protein-A was purchase from (GE Healthcare). Human soluble dimeric CD73 proteins were cloned, produced and purified at Innate Pharma.
Protein-A proteins were immobilized covalently to carboxyl groups in the dextran layer on a Sensor Chip CMS. The chip surface was activated with EDC/NHS (N-ethyl-N′-(3-dimethylaminopropyl) carbodiimide hydrochloride and N-hydroxysuccinimide (Biacore GE Healthcare). Protein-A was diluted to 10 μg/ml in coupling buffer (10 mM acetate, pH 5.6) and injected until the appropriate immobilization level was reached (i.e. 2000 RU). Deactivation of the remaining activated groups was performed using 100 mM ethanolamine pH 8 (Biacore GE Healthcare).
Affinity study was carried out according to a standard Capture-Kinetic protocol recommended by the manufacturer (Biacore GE Healthcare kinetic wizard). Serial dilutions of human recombinant soluble dimeric CD73 proteins, ranging from 1.23 to 300 nM were sequentially injected over the captured anti-CD73 antibodies and allowed to dissociate for 10 min before regeneration. The entire sensorgram sets were fitted using the 1:1 kinetic binding model. Bivalent affinities and kinetic association and dissociation rate constants are shown below in Table 2 below.
On to B1, for which the Kd was 0.822 nM.
Still for that read-out and setting: the same measure for B2: 0.819 nM; for B3: 0.682 nM.

A further experiment has as its target T2, human CD73 mutant 16. Briefly: flow cytometry, HEK293T transfectants.
Regarding B1, the binding result is “no binding”.
Consider B2, for which the binding result was “no binding”.
In the case of B3, the binding result is listed as “no binding”.

A further experiment deals with T3, human CD73 mutant 22. The experiment in a line: flow cytometry, HEK293T transfectants. (In general: In flow cytometry, cells or beads pass a laser one at a time.)
Turning to B1, the binding result is given as “no binding”.
In the case of B2, the binding result is on record as “no binding”.
Still for that read-out and setting: the result for B3 reads “no binding”.

The target of another experiment is T4, human CD73 mutant 21. The experiment in a line: flow cytometry, HEK293T transfectants.
Regarding B1, the binding result was “no binding”.
Same read-out and setting: the result for B2 reads “no binding”; that for B3, “no binding”.
